This passage reports Km, Vmax and Vmax/Km results from publication PMC11406361, “Several orphan solute carriers functionally identified as organic cation transporters: Substrates specificity compared with known cation transporters” (The Journal of Biological Chemistry, 2024).

Assay in all cases: cells, lysate or membranes
Substrate in series [1]: CCOC(=O)C1(c2ccccc2)CCN(C)CC1
The following applies: other: SLC35G3, HEK293, net uptake over empty vector cells; pH 7.4.

Substrate in series [2]: CCCN1CCCC[C@H]1C(=O)Nc1c(C)cccc1C
The conditions noted are these: other: SLC35G3, HEK293, net uptake over empty vector cells; pH 7.4.

Substrate in series [3]: COC(=O)[C@H]1[C@@H](OC(=O)c2ccccc2)C[C@@H]2CC[C@H]1N2C
The following applies: pH 7.4.

Substrate in series [4]: CNC(C)Cc1ccc2c(c1)OCO2
The conditions noted are these: other: SLC35G3, HEK293, net uptake over empty vector cells; pH 7.4.

Substrate in series [5]: CCCNC(C)C(=O)Nc1c(C)csc1C(=O)OC
The conditions noted are these: other: SLC35G3, HEK293, net uptake over empty vector cells; pH 7.4.

Substrate in series [6]: Clc1cccc(Cl)c1N=C1NCCN1
The conditions noted are these: other: SLC35G3, HEK293, net uptake over empty vector cells; pH 7.4.

Substrate in series [7]: COc1ccc2c3c1O[C@H]1C(=O)CC[C@@]4(O)[C@@H](C2)N(C)CC[C@]314
The conditions noted are these: pH 7.4.

Substrate in series [8]: c1cnc2cc3c(cc2n1)[C@@H]1CNC[C@H]3C1
The conditions noted are these: other: SLC35E2A, HEK293, net uptake over empty vector cells; pH 7.4.

Substrate in series [9]: C[N+](C)(C)CCO
The following applies: pH 7.4.

Setting [10] is: other: SLC35F5, HEK293, net uptake over empty vector cells.
The mark [11] stands for this setting: other: SLC35F4, HEK293, net uptake over empty vector cells.
Where [12] appears, read: other: SLC35G4, HEK293, net uptake over empty vector cells.
The mark [13] stands for this setting: other: SLC35F3, HEK293, net uptake over empty vector cells.
Setting [14] is: other: SLC35E4, HEK293, net uptake over empty vector cells.
The mark [15] stands for this setting: other: SLC35F2, HEK293, net uptake over empty vector cells.
The mark [16] stands for this setting: other: SLC44A1, HEK293, net uptake over empty vector cells.

B1: SLC35G3 (Homo sapiens) (protein)
chain: MAGSHPYFNQPDSTHPSPPSAPPSLRWYQRCQPSDATSGLLVALLGGGLPAGFVGPLSRMAYQASNLPSLELLIWRCLFHLPIALLLKLRGDPLLGTPDIRSRAFFCALLNILSIGCAYSAVQVVPAGNAATVRKGSSTVCSAVLTLCLESQGLSGYDWCGLLGCILGLIIIVGPGLWTLQEGTTGVYTALGYVEAFLGGLALSLRLLVYRSLHFPPCLPTVAFLSGLVGLLGSVPGLFVLQAPVLPSDLLSWSCVGAVGILALVSFTCVGYAVTKAHPALVCAVLHSEVVVALILQYYMLHETVAPSDIVAAGVVLGSIAIITAQNLSCERTGRVEE
On to B1, for which the Km in [1] is listed as 57.7 (±44.9) μM; in series [2], 151 (±60.7) μM; in [3], 466 (±117) μM; in [4], 141 (±50.4) μM; in [5], 143 (±119) μM; in [6] it was 48.2 (±23.9) μM. In addition, the Vmax in [1] amounted to 0.000265 µmol/min/mg; in [2], 0.000551 µmol/min/mg; in series [3], 0.000739 µmol/min/mg; in [4], 0.000606 µmol/min/mg; in series [5], 0.000291 µmol/min/mg; in series [6] it was 0.000234 µmol/min/mg. Besides, the Vmax/Km in series [1] was determined as 4.6 µL/min/mg; in [2] it was 3.64 µL/min/mg; in [3], 1.59 µL/min/mg; in series [4] it was 4.31 µL/min/mg; in series [5] it was 2.04 µL/min/mg; in series [6], 4.85 µL/min/mg.

B2: SLC35E2A (Homo sapiens) (protein)
chain: MSSSVKTPALEELVPGSEEKPKGRSPLSWGSLFGHRSEKIVFAKSDGGTDENVLTVTITETTVIESDLGVWSSRALLYLTLWFFFSFCTLFLNKYILSLLGGEPSMLGAVQMLSTTVIGCVKTLVPCCLYQHKARLSYPPNFLMTMLFVGLMRFATVVLGLVSLKNVAVSFAETVKSSAPIFTVIMSRMILGEYTGRPSDREEREELQLQPGRGAAASDRRSPVPPSERHGVRPHGENLPGDFQVPQALHRVALSMALPCPMLPAS
B2: the values for the Km in series [3], in [7] and in series [8] were 165 (±47.7) μM, 92.0 (±31.0) μM and 474 (±190) μM, respectively. In addition, the Vmax came out at 0.000683 µmol/min/mg in series [3], 0.000317 µmol/min/mg in [7] and 0.000847 µmol/min/mg in series [8]. Also, the values for the Vmax/Km in [3], in series [7] and in series [8] were 4.14 µL/min/mg, 3.44 µL/min/mg and 1.79 µL/min/mg, respectively.

B3: SLC35F5 (Homo sapiens) (protein)
chain: MVPPRRHRGAGRPGVLSSSPPFRLRSAKFSGIALEDLRRALKTRLQMVCVFVMNRMNSQNSGFTQRRRMALGIVILLLVDVIWVASSELTSYVFTQYNKPFFSTFAKTSMFVLYLLGFIIWKPWRQQCTRGLRGKHAAFFADAEGYFAACTTDTTMNSSLSEPLYVPVKFHDLPSEKPESTNIDTEKTPKKSRVRFSNIMEIRQLPSSHALEAKLSRMSYPVKEQESILKTVGKLTATQVAKISFFFCFVWFLANLSYQEALSDTQVAIVNILSSTSGLFTLILAAVFPSNSGDRFTLSKLLAVILSIGGVVLVNLAGSEKPAGRDTVGSIWSLAGAMLYAVYIVMIKRKVDREDKLDIPMFFGFVGLFNLLLLWPGFFLLHYTGFEDFEFPNKVVLMCIIINGLIGTVLSEFLWLWGCFLTSSLIGTLALSLTIPLSIIADMCMQKVQFSWLFFAGAIPVFFSFFIVTLLCHYNNWDPVMVGIRRIFAFICRKHRIQRVPEDSEQCESLISMHSVSQEDGAS
On to B3, for which, in [9] (setting [10]), the Km was 5.83 (±3.23) μM, the Vmax is 3.48e-05 µmol/min/mg and the Vmax/Km was found to be 5.97 µL/min/mg.

B4: SLC35F4 (Homo sapiens) (protein)
chain: MDELLLDLFHKLTSGRQLAAGNGLCGISHKEQEVWKPGHNILVKMRKEDKSLVWLIHSTLARYTQVTNFLGTSRSSVTRCKPGANCPSSHSGISRQLSPLSVTEDSSAPILELQNQGSSGVCGHRVERQNRSADDGTQTHSENSSQENRIKARCLSCTSMVLKGIWGLLIILSVSSSWVGTTQIVKITYKNFYCPFFMTWFSTNWNIMFFPVYYSGHLATAQEKQSPMKKFRECSRIFGEDGLTLKLFLKRTAPFSILWTLTNYLYLLALKKLTATDVSALFCCNKAFVFLLSWIVLKDRFMGVRIVAAIMAITGIVMMAYADNFHADSIIGVAFAVGSASTSALYKVLFKMFLGSANFGEAAHFVSTLGFFNLIFISFTPVILYFTKVEHWSSFAALPWGCLCGMAGLWLAFNILVNVGVVLTYPILISIGTVLSVPGNAAVDLLKQEVIFNVVRLAATIIICIGFLLMLLPEEWDEITLRFINSLKEKKSEEHVDDVTDPSIHLRGRGRANGTVSIPLA
On to B4, for which, in series [9] (setting [11]), the Km is recorded as 47.4 (±48.1) μM, the Vmax is 6.28e-05 µmol/min/mg and the Vmax/Km amounted to 1.32 µL/min/mg.

B5: SLC35G4 (Homo sapiens) (protein)
chain: MAGSHPYFNLPDSTHPSPPSTPPSLHWHQRCQPSDATNGLLVALLGGGLPAGFVGPLSRMAYQASNLPSLELVICRCLFHLPIALLLKLRGDPLLGPPDIRGRTCFCALLNVLNIGCAYSAVQVVPTGNAATVRKHSSTVCSAILTLCLESQVLSGYDWCGLLGSILGLIIIVGPGLWTLQEGTTGVYTGLGYVQAFLGGLALSLGLLVYRSLHFPSCLPTVAFLSGLVGLLGSVPGLFVLQSPVLPSDLLSWSCVGAVGILTLVSFTCVGYAVTKAHPALVCAVLHSEVVMALILQYFMLHETVAPSDIMGAGVVLGSIAIITARNLICERTGKVEE
With B5, in series [9] (setting [12]), the Km is on record as 13.2 (±7.02) μM, the Vmax was determined as 0.000108 µmol/min/mg and the Vmax/Km worked out at 8.15 µL/min/mg.

B6: SLC35F3 (Homo sapiens) (protein)
chain: MKKHSARVAPLSACNSPVLTLTKVEGEERPRDSPGPAEAQAPAGVEAGGRASRRCWTCSRAQLKKIFWGVAVVLCVCSSWAGSTQLAKLTFRKFDAPFTLTWFATNWNFLFFPLYYVGHVCKSTEKQSVKQRYRECCRFFGDNGLTLKVFFTKAAPFGVLWTLTNYLYLHAIKKINTTDVSVLFCCNKAFVFLLSWIVLRDRFMGVRIVAAILAIAGIVMMTYADGFHSHSVIGIALVVASASMSALYKVLFKLLLGSAKFGEAALFLSILGVFNILFITCIPIILYFTKVEYWSSFDDIPWGNLCGFSVLLLTFNIVLNFGIAVTYPTLMSLGIVLSIPVNAVIDHYTSQIVFNGVRVIAIIIIGLGFLLLLLPEEWDVWLIKLLTRLKVRKKEEPAEGAADLSSGPQSKNRRARPSFAR
As for B6, in [9] (setting [13]), the Km is listed as 112 (±96.4) μM, the maximum rate (Vmax) was found to be 0.000135 µmol/min/mg and the Vmax/Km was found to be 1.21 µL/min/mg.

B7: SLC35E4 (Homo sapiens) (protein)
chain: MCRCPPEHHDGRMTSAEVGAAAGGAQAAGPPEWPPGSPQALRQPGRARVAMAALVWLLAGASMSSLNKWIFTVHGFGRPLLLSALHMLVAALACHRGARRPMPGGTRCRVLLLSLTFGTSMACGNVGLRAVPLDLAQLVTTTTPLFTLALSALLLGRRHHPLQLAAMGPLCLGAACSLAGEFRTPPTGCGFLLAATCLRGLKSVQQSALLQEERLDAVTLLYATSLPSFCLLAGAALVLEAGVAPPPTAGDSRLWACILLSCLLSVLYNLASFSLLALTSALTVHVLGNLTVVGNLILSRLLFGSRLSALSYVGIALTLSGMFLYHNCEFVASWAARRGLWRRDQPSKGL
As to B7, in series [9] (setting [14]), the Km is recorded as 245 (±331) μM, the Vmax worked out at 4.19e-05 µmol/min/mg and the Vmax/Km turned out to be 0.17 µL/min/mg.

B8: SLC35F2 (Homo sapiens) (protein)
chain: MEADSPAGPGAPEPLAEGAAAEFSSLLRRIKGKLFTWNILKTIALGQMLSLCICGTAITSQYLAERYKVNTPMLQSFINYCLLFLIYTVMLAFRSGSDNLLVILKRKWWKYILLGLADVEANYVIVRAYQYTTLTSVQLLDCFGIPVLMALSWFILHARYRVIHFIAVAVCLLGVGTMVGADILAGREDNSGSDVLIGDILVLLGASLYAISNVCEEYIVKKLSRQEFLGMVGLFGTIISGIQLLIVEYKDIASIHWDWKIALLFVAFALCMFCLYSFMPLVIKVTSATSVNLGILTADLYSLFVGLFLFGYKFSGLYILSFTVIMVGFILYCSTPTRTAEPAESSVPPVTSIGIDNLGLKLEENLQETHSAVL
As to B8, in [3], the Km is recorded as 161 (±99.5) μM, the Vmax was 0.000415 µmol/min/mg and the Vmax/Km came out at 2.58 µL/min/mg. In series [9] (setting [15]), the Km was 32.6 (±14.9) μM, the Vmax came out at 8.1e-05 µmol/min/mg and the Vmax/Km amounted to 2.48 µL/min/mg.

B9: SLC44A1 (Homo sapiens) (protein)
chain: MGCCSSASSAAQSSKREWKPLEDRSCTDIPWLLLFILFCIGMGFICGFSIATGAAARLVSGYDSYGNICGQKNTKLEAIPNSGMDHTQRKYVFFLDPCNLDLINRKIKSVALCVAACPRQELKTLSDVQKFAEINGSALCSYNLKPSEYTTSPKSSVLCPKLPVPASAPIPFFHRCAPVNISCYAKFAEALITFVSDNSVLHRLISGVMTSKEIILGLCLLSLVLSMILMVIIRYISRVLVWILTILVILGSLGGTGVLWWLYAKQRRSPKETVTPEQLQIAEDNLRALLIYAISATVFTVILFLIMLVMRKRVALTIALFHVAGKVFIHLPLLVFQPFWTFFALVLFWVYWIMTLLFLGTTGSPVQNEQGFVEFKISGPLQYMWWYHVVGLIWISEFILACQQMTVAGAVVTYYFTRDKRNLPFTPILASVNRLIRYHLGTVAKGSFIITLVKIPRMILMYIHSQLKGKENACARCVLKSCICCLWCLEKCLNYLNQNAYTATAINSTNFCTSAKDAFVILVENALRVATINTVGDFMLFLGKVLIVCSTGLAGIMLLNYQQDYTVWVLPLIIVCLFAFLVAHCFLSIYEMVVDVLFLCFAIDTKYNDGSPGREFYMDKVLMEFVENSRKAMKEAGKGGVADSRELKPMASGASSA
For B9, in [9] (setting [16]), the Km was 28.9 (±18.5) μM, the Vmax worked out at 6.01e-05 µmol/min/mg and the Vmax/Km turned out to be 2.08 µL/min/mg.
